The values below come from the DeepSol protein solubility set.

The data set in a line: soluble on expression in E. coli; label from the status in PepcDB or PDB records.
On to “MPTVNVIGAGLAGSEAAWQIAQAGVDVNLYEMRPVKMTPAHHTSNFAELVCTNSLRANQITNAVGLLKEEMRQLHSIIIQSADATAVPAGGALAVDREPFSELVTQKLTSNSHIHVVNEELSAFPDGITVVATGPLTAPGLAQAIVDLNGEAGLSFFDAAAPILDANTINEDIVYKKSRYDRGEAAYLNCPMTKDEFLAFYQALVSAEVAEGHDFEKMTVFEGCMPIEVMAKRGIKTMLFGPLKPVGLEDPRTGKEPYAVVQLRQDNAAASLYNMVGFQTHLKWGEQKRVFRLIPGLENVQIVRYGVMHRNTFMKSPVVLEPTYASKRRPDLFFAGQMTGVEGYVESAASGLIAGINATRMALGETPVIFPETTAMGSMAHYITHTSAHHFQPMNANFGIMPALTVKIRNKKERNQQLADRALKDLATFQAGMNRVEQVLEHHHHHH”, for which the “soluble on expression in E. coli” value was “soluble”. “MREYKVVVLGSGGVGKSALTVQFVTGSFIEKYDPTIEDFYRKEIEVDSSPSVLEILDTAGTEQFASMRDLYIKNGQGFILVYSLVNQQSFQDIKPMRDQIIRVKRYERVPMILVGNKVDLEGEREVSYGEGKALAEEWSCPFMETSAKNKASVDELFAEIVRQMNYAAQPNGDEGCCSACVIL”: the “soluble on expression in E. coli” value is given as “soluble”.

For the sequence “MGQERLDNANPTLFDSKPRHRPVTGTERDESVEDPIDSWEIFDLIRDINDPEHPYTLEQLNVVQEELIKVFIDEEETFVKVNFTPTIPHCSMATLIGLAIRVKLLRSLHPKVKVSVSITPGSHSTEESINRQLADKERVAAAMENQGLMHAVNECLRVPE”, the “soluble on expression in E. coli” value is “not soluble”. For “MPKLTIEGAGTFDVKEGTKLVLAIEDSGVNILHRCGGNARCTTCRVEILAGDFCEASANEKHAMTEKGIEDHLRLSCQMRVHKDIVVRPVLTVENSGLDAGPRPAE” the value was “not soluble”.

Turning to “MYRVFVFDLDGTLLNDNLEISEKDRRNIEKLSRKCYVVFASGRMLVSTLNVEKKYFKRTFPTIAYNGAIVYLPEEGVILNEKIPPEVAKDIIEYIKPLNVHWQAYIDDVLYSEKDNEEIKSYARHSNVDYRVEPNLSELVSKMGTTKLLLIDTPERLDELKEILSERFKDVVKVFKSFPTYLEIVPKNVDKGKALRFLRERMNWKKEEIVVFGDNENDLFMFEEAGLRVAMENAIEKVKEASDIVTLTNNDSGVSYVLERISTDCLDE”, the “soluble on expression in E. coli” value is listed as “soluble”. For “MTRRDNEERVLHAATDTEQSQVTDLRQNVSATPLTDAEVGRLQLLEERATVQVERQGIGQVQVRKVVRERQEMVPVTLTTEVLEIVVTPAAQGTGAQNVGDTQTAAASAAGTTGNGGVSQVLIDGKPLEAGQTYEIPLTEERVQVMRQVVPLSEVVVRRQAQATTHEETVTLRREELEVLDEQGLARIVDEGAALEHHHHHH” the value was “soluble”. The result for “MGSDKIHHHHHHMLRLITDFDGPIIDVSERYYRVYQFCLEKTRRPDQVVQELPKAEFWQLKRSRVPEKQIAFNSGLDEAQAQEFAQLRRQTVHTEAYFNYDTLAPGAVDALLKIQEAGIDLAVMTMRRVRELDYAFKKYDLGRFFPENRCYCLSNDYVKTRDIEDKPLLMARALKELPPAADTWMVGDTEADITAAKNYDIKVMAVESGIRDRTQLELYHPDLIVKDFSTAVDLVLKPKHLV” reads “not soluble”; that for “MGSDKIHHHHHHMLDQAERLRNMALKKNAGEEIKRPVIITVTSGKGGVGKSNFVVNLSITLQQMNKKVLIFDADVGMGNDDILLGCISKYSVFDVIYNNMKIEDAIVEGPFGVKLLPGGSGITKFKDITEDQINAFVKKLASIGNFDYIIMDTGAGVNRSVLGFISCCEELIILTTPEPTSLTDAYSLFKAVVHFKIKSYAKVVINRVVDNKEGLETYKKFQSVAKKFLKADTEFLGSISEDSRIVKAVRNQTPFVVENPNCYAAKDIQYIANKLMGTTTKDNGLGIEGLFKKLFKIFS”, “not soluble”. For “MGSDKIHHHHHHSDQYSTETFWKTKEHASAGIMGCYNALKLWRSLHTMEFDMLTANAMPYNEANGTQAIGKGEHLSTTALIGSLWKNCYVGIGRTNTFIANVGGVDMDESEKAKMVGEAKFLRAFYYLSLVDKFGGVPLIIDAPNADEQAELPRNSKEEVVNQIVKDLEEAAAVLPDTYASSDLGRATKGAALALKARTLLYNSRWAEAAQAAKQVMESGVYQLFNDYRHFFSEDNKYNCEVIFDIEAKLPEYPTDYDQNIWRLNRPAPLKELVDTYLCVDGKTIEESPLYDPTRPYENRDPRLLKSIVCIGYPYLGKTITKEDVATTGFGVKKYTSYEDDVTIPLVERSAFNFILIRYAEVLLTYAEAQNEASGPDQSVYDAINQLRRRPDINMPEVPKGLTKDQMREVIRRERRIELTFEGLYYSDILRWKTAEKENNGMMHNYEGIEVVKRSFNPKRDYLWPIPYNQTVLNPNLEQNPNWD” the value was “not soluble”; for “MSQQGLERRLLAGLQGLGLTINQAQRAVKHFGADALDRLEKDLFTLTEVEGIGFLTADKLWQARGGALDDPRRLTAAAVYALQLAGTQAGHSFLPRSRAEKGVVHYTRVTPGQARLAVETAVELGRLSEDDSPLFAAEAAATGEGRIYLPHVLRAEKKLASLIRTLLATPPADGAGNDDWAVPKKARKGLSEEQASVLDQLAGHRLVVLTGGPGTGKSTTTKAVADLAESLGLEVGLCAPTGKAARRLGEVTGRTASTVHRLLGYGPQGFRHNHLEPAPYDLLIVDEVSMMGDALMLSLLAAVPPGARVLLVGDTDQLPPVDAGLPLLALAQAAPTIKLTQVYRQAAKNPIIQAAHGLLHGEAPAWGDKRLNLTEIEPDGGARRVALMVRELGGPGAVQVLTPMRKGPLGMDHLNYHLQALFNPGEGGVRIAEGEARPGDTVVQTKNDYNNEIFNGTLGMVLKAEGARLTVDFDGNVVELTGAELFNLQLGYALTVHRAQGSEWGTVLGVLHEAHMPMLSRNLVYTALTRARDRFFSAGSASAWQIAAARQREARNTALLERIRAHLEHHHHHH”, “soluble”. On to “LAAGPALSARGYLALNGQTPAGCSLMEWQNDNNGRQRWCVRLVQGGGFAGPLFDGFDNLYVGQPGAIISFPPTQWTRWRQPVIGMPSTPRFLGHGRLLVSTHLGQLLVFDTRRGMVVGSPVDLVDGIDPTDATRGLADCAPARPGCPVAAAPAFSSVNGTVVVSVWQPGEPAAKLVGLKYHAEQLVREWTSDAVSAGVLASPVLSADGSTVYVNGRDHRLWALNAADGKAKWSAPLGFLAQTPPALTPHGLIVSGGGPDTALAAFRDAGDHAEGAWRRDDVTALSTASLAGTGVGYTVISGPNHDGTPGLSLLVFDPANGHTVNSYPLPGATGYPVGVSVGNDRRVVTATSDGQVYSFAP”, for which the “soluble on expression in E. coli” value is listed as “not soluble”.

As for “MGSDKIHHHHHHMKLDDCQLLIHVHKAGTMRGAARSLHLSQPAISQRLKQMEDLWGGAIFIRTHKKLLLTPLGEKVLTFAQETLWRTERLREELEQMKGSVSGRLSLGISSVVSHYLIPPLLEKYTKAYPRVNIELISTTSDQIRRTFSSYHVAIFRGDRLPEQASHLLLADPLYLVFDKDIPIEKRPLIQWKSDPSLEALIQAWMRSVTSFTFRGHVSVDQIETCKQLMLRGVGAAILPEMAIKDVSDQCFHKLPLQLDNQPLERQTWVLYEEEALSLPQVEAFLQLLPLK”, the “soluble on expression in E. coli” value is recorded as “not soluble”. The result for “MSGQNNVVGVHYKVGRRIGEGSFGVIFEGTNLLNNQQVAIKFEPRRSDAPQLRDEYRTYKLLAGCTGIPNVYYFGQEGLHNVLVIDLLGPSLEDLLDLCGRKFSVKTVAMAAKQMLARVQSIHEKSLVYRDIKPDNFLIGRPNSKNANMIYVVDFGMVKFYRDPVTKQHIPYREKKNLSGTARYMSINTHLGREQSRRDDLEALGHVFMYFLRGSLPWQGLKAATNKQKYERIGEKKQSTPLRELCAGFPEEFYKYMHYARNLAFDATPDYDYLQGLFSKVLERLNTTEDENFDWNLL” reads “soluble”; that for “MGSDKIHHHHHHMQKEQCYMCEKSATSAEHVPPKCLFPEFKDAKKNLRVNLITVPSCDEHNGKKSHDDEFLMVSIAGIIGNNSIGYQHYSGKIQRALRRTSYKLLEKVFLRKELVRIGDENKFIEILWGTPDYERLINCFSHIAYGIYHHHFKQKFYGVLKPYLGFLHTNEQNPKAFKAFIKEKVRVELADEPKYGDNLEVFYYQFTKPDNFGIFLVKLCFYQNVDVFVSYMPSGAQKPTHLGFELMNRGIKTIITLGDKEYEFN”, “not soluble”.

On to “MGSDKIHHHHHHMTWNLAGSYSETCSCELMCPCNMSFDHGATYDFCRVTLAFNVHEGSVEGTDIAGRKVVLIADTPKVMTDGNWRVGVFVDDGASEEQFDKLVQVFGGQLGGPMAGLAPLIGEMLGVQRAAIDIEDDGLLHSVRVGDEIDFQIQDIVPFGVETGEPVRFAGMFHPVGSDLVMAEAKRTRINAFGITYEGKTGLSKSSFTWAA”, for which the “soluble on expression in E. coli” value is listed as “not soluble”.

“SLHELSIVESLIELCEENALNNKAYNVQEIYVKIGRLSGIEVDLFKRCFETFKENSNICKNAKLFIELAPLEILCLKCDQTSILEENVFKCPKCQSIEYKIIQGEDLHLMRLVMK”: the “soluble on expression in E. coli” value is “soluble”.

In the case of “MGHHHHHHGGHMSLNISDVAKITGLTSKAIRFYEEKGLVTPPMRSENGYRTYTQQHLNELTLLRQARQVGFNLEESGELVNLFNDPQRHSADVKRRTLEKVAEIERHIEELQSMRDQLLALANACPGDDSADCPIIENLSGCCHHRAGEGGS”, the “soluble on expression in E. coli” value was “soluble”. For “MGSDKIHHHHHHMNKTCERTSGDCTGESKARAASDRVTPCFTPGTLIATPRGERLVENLQVGDRVITRDNGIQEIRWFGHNAMGPQDLSHASHLQPILIRQGALGNGLPERDMMVSPNHRVLVANDKTALYFEDREVLVAAKHLTGLTGIDAIVTTAVTYIHFMFNQHEVVLSDGAWTESFQPVDQSLRGLDNAQRNEIFELFPELRTKEGQKAYPSARRELKEREARMLLH” the value was “not soluble”; for “MAPPTFADLGKSAKDLFNKGYNFGFLKIDSTTRAGDNKEVEFKSAASHNIGSGKLGGNLDVKYKIPQYGITLTEKWNTENQLGTVIEVNEQFGRGLKVTLDSLYAPHAGKRSGKVKLDWALPTARVTADVGVTSAPVINAAGVFSRDGWLIGAAATFDSSSNKLAATSLAFGHSTPQYTLHSFVINSTDFGASLYHKVASNVEVGTQLGWKVGGNGADYALATKYAPSRDLTVRAKVNSSSQVAVAATHSLSPALKLTLSTQFNLAANDAHKFGLGLEFDPSN”, “not soluble”. The result for “MNLKSFTRKVSSTRDHRLLAEAIFDQLENLFSPHAIAIFEDPLTNPRCSVSFSRGELYPIQKYPEIFWDWACQFDTSESIIPLAINTCNWNHTQDLGGDSYILMLDNTPIKRTYLLIQSVQARTAHNIYEESYDAMQLAAARWQCIRAEKNASQEMRHRDIREAQYVDEISQRERFIENMKLVQQVALEISNPDSLKDLYYKAVEALRERLGFDRTTLMLLDMKKRSFSGTYGTDESGITIDEFHTQYDLHQLSEEYIAALSSLESNLVIIEDAPIYTAGKVVGQGWNAMLILRDGNEPFGWFALDNFIHRKPITAYQKQMLDSFGSLFSQIYIRKRQEQNVRMLHSSMVELSRCTTVSDVCKSAVTFAIKNLGIDRMAVFLTDENCSYMQGTWGTDIQGNVVDESYFFGETQNFSLINLARAVPSEVAFEESVPIYHDCNIVG” reads “not soluble”; that for “GGGPFIVVAHSQGSMIAYHVLRQLKKADCDVRLFITIGSPLGIQEAQDVLGKIGSGKPLAVPECVDRWLNVAERLDPVALDSDLGNDYQPNSHGVKIENHAGLMINPEWASNPHSGTGYLSLDIVRQAVRETAGPTFSNPVGRNILMKDLVDNIEDGHREQRHPTLIQLVSDDDDATSLDEVRDRLSNLIKNVL”, “not soluble”; that for “MFLTAVRRSSNVLKTFKPLYDRVLVERVAAETKTKGGIMLPEKSQGKVLEATVVSAGAGLRNEKGELVALTVKPGDRVLLPEYGGTKVVVEDKEYSIFRESDLLGVFH”, “not soluble”.
